In patent publication US20250352661A1 (MYTHIC THERAPEUTICS, published 2025):
Substitutions are numbered along the chain they refer to. Names and notes keep the numbering of the source.

T1: Human LRRC15 Protein, His Tag (Acro Biosystems) (human, UniProt Q8TF66 22-538, limits assumed)
T1 construct: not shown: His tag
T1 sequence (looked up): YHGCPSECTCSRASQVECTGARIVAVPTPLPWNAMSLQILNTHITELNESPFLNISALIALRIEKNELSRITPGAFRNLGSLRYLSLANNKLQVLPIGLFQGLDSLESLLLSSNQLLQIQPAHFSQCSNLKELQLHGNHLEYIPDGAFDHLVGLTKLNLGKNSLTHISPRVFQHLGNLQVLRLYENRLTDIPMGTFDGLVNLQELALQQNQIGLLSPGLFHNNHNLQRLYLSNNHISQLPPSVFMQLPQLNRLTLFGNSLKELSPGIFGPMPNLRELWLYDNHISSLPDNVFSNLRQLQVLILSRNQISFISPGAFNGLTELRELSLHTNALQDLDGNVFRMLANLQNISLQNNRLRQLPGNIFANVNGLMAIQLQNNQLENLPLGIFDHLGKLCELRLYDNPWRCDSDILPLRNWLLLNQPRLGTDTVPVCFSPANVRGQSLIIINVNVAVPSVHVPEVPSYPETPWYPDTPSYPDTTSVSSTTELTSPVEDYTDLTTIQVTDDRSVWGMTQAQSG

T2: Human LRRC15 Protein, His Tag (Acro Biosystems) (human, UniProt Q8TF66 22-538, limits assumed)
T2 construct: Bought protein with His tag
T2 sequence (looked up): T1 sequence (looked up)

B1: MYT7926 (antibody, V domains shown)
VH: QQQLVESGGGLVKPGASLTLTCKASGFSFSGSYWICWVRQAPGKGLEWIGCINGGSLDITYYASWAKGRFTISKASSTTVTLQKTSLTAADTATYFCASDTSYTAYGNFYFNLWGPGTLVTVSS
VL: AQVLTQTASPVSAAVGGTVTINCHSSQSVLNNNWLAWYQQKPGQPPKLLIYDASSLASGVPSRFKGSGSGTQFTLTISDLESDDAATYYCQGEFSCGSADCNAFGGGTEVVVKG
notes: tested as culture supernatant; also called 24D9 VL Q24H
B2: MYT7927 (antibody, V domains shown)
VH: B1 VH
VL: B1 VL with H24Q, S25H
notes: tested as culture supernatant; also called 24D9 VL S25H
B3: MYT7928 (antibody, V domains shown)
VH: B1 VH
VL: B1 VL with H24Q, S26H
notes: tested as culture supernatant; also called 24D9 VL S26H
B4: MYT7929 (antibody, V domains shown)
VH: B1 VH
VL: B1 VL with H24Q, Q27H
notes: tested as culture supernatant; also called 24D9 VL Q27H
B5: MYT7930 (antibody, V domains shown)
VH: B1 VH
VL: B1 VL with H24Q, S28H
notes: tested as culture supernatant; also called 24D9 VL S28H
B6: MYT7931 (antibody, V domains shown)
VH: B1 VH
VL: B1 VL with H24Q, V29H
notes: tested as culture supernatant; also called 24D9 VL V29H
B7: MYT7932 (antibody, V domains shown)
VH: B1 VH
VL: B1 VL with H24Q, L30H
notes: tested as culture supernatant; also called 24D9 VL L30H
B8: MYT7933 (antibody, V domains shown)
VH: B1 VH
VL: B1 VL with H24Q, N31H
notes: also called 24D9 VL N31H
B9: MYT7934 (antibody, V domains shown)
VH: B1 VH
VL: B1 VL with H24Q, N32H
notes: tested as culture supernatant; also called 24D9 VL N32H
B10: MYT7935 (antibody, V domains shown)
VH: B1 VH
VL: B1 VL with H24Q, N33H
notes: also called 24D9 VL N33H
B11: MYT7936 (antibody, V domains shown)
VH: B1 VH
VL: B1 VL with H24Q, W34H
notes: tested as culture supernatant; also called 24D9 VL W34H
B12: MYT7937 (antibody, V domains shown)
VH: B1 VH
VL: B1 VL with H24Q, L35H
notes: tested as culture supernatant; also called 24D9 VL L35H
B13: MYT7938 (antibody, V domains shown)
VH: B1 VH
VL: B1 VL with H24Q, A36H
notes: tested as culture supernatant; also called 24D9 VL A36H
B14: MYT7939 (antibody, V domains shown)
VH: B1 VH
VL: B1 VL with H24Q, D52H
notes: tested as culture supernatant; also called 24D9 VL D52H
B15: MYT7940 (antibody, V domains shown)
VH: B1 VH
VL: B1 VL with H24Q, A53H
notes: tested as culture supernatant; also called 24D9 VL A53H
B16: MYT7941 (antibody, V domains shown)
VH: B1 VH
VL: B1 VL with H24Q, S54H
notes: tested as culture supernatant; also called 24D9 VL S54H
B17: MYT7942 (antibody, V domains shown)
VH: B1 VH
VL: B1 VL with H24Q, S55H
notes: tested as culture supernatant; also called 24D9 VL S55H
B18: MYT7943 (antibody, V domains shown)
VH: B1 VH
VL: B1 VL with H24Q, L56H
notes: tested as culture supernatant; also called 24D9 VL L56H
B19: MYT7944 (antibody, V domains shown)
VH: B1 VH
VL: B1 VL with H24Q, A57H
notes: tested as culture supernatant; also called 24D9 VL A57H
B20: MYT7945 (antibody, V domains shown)
VH: B1 VH
VL: B1 VL with H24Q, S58H
notes: tested as culture supernatant; also called 24D9 VL S58H
B21: MYT7946 (antibody, V domains shown)
VH: B1 VH
VL: B1 VL with H24Q, Q91H
notes: tested as culture supernatant; also called 24D9 VL Q91H
B22: MYT7947 (antibody, V domains shown)
VH: B1 VH
VL: B1 VL with H24Q, G92H
notes: tested as culture supernatant; also called 24D9 VL G92H
B23: MYT7948 (antibody, V domains shown)
VH: B1 VH
VL: B1 VL with H24Q, E93H
notes: tested as culture supernatant; also called 24D9 VL E93H
B24: MYT7949 (antibody, V domains shown)
VH: B1 VH
VL: B1 VL with H24Q, F94H
notes: tested as culture supernatant; also called 24D9 VL F94H
B25: MYT7950 (antibody, V domains shown)
VH: B1 VH
VL: B1 VL with H24Q, S95H
notes: tested as culture supernatant; also called 24D9 VL S95H
B26: MYT7951 (antibody, V domains shown)
VH: B1 VH
VL: B1 VL with H24Q, C96H
notes: tested as culture supernatant; also called 24D9 VL C96H
B27: MYT7952 (antibody, V domains shown)
VH: B1 VH
VL: B1 VL with H24Q, G97H
notes: tested as culture supernatant; also called 24D9 VL G97H
B28: MYT7953 (antibody, V domains shown)
VH: B1 VH
VL: B1 VL with H24Q, S98H
notes: tested as culture supernatant; also called 24D9 VL S98H
B29: MYT7954 (antibody, V domains shown)
VH: B1 VH
VL: B1 VL with H24Q, A99H
notes: also called 24D9 VL A99H
B30: MYT7955 (antibody, V domains shown)
VH: B1 VH
VL: B1 VL with H24Q, D100H
notes: tested as culture supernatant; also called 24D9 VL D100H
B31: MYT7957 (antibody, V domains shown)
VH: B1 VH
VL: B1 VL with H24Q, N102H
notes: tested as culture supernatant; also called 24D9 VL N102H
B32: MYT7958 (antibody, V domains shown)
VH: B1 VH
VL: B1 VL with H24Q, A103H
notes: tested as culture supernatant; also called 24D9 VL A103H
B33: MYT6122 (antibody, V domains shown)
VH: QEQLEESGGDLVKPGASLTLTCTASGLDFRRTNYICWVRQAPGKGLEWIGCIYIADVVHYYASWAKGRFTFSKTSSTTVTLQMTSLTAADTATYFCARGADGGFVYGMDLWGPGTLVTVSS
VL: DVVMTQTPASVSEPVGGTVTIKCHASQSIGNYLSWYQQKPGQRPKRLIYSASTLPSGVPSRFKGAGSGTEFTLTISDLESADAATYYCQNNYWLAGYGHPFGGGTEVVVK
notes: rabbit 15G7 VL Q24H; chimeric, human constant regions

Legend:
[1] = biological target: T1, Human LRRC15 Protein, His Tag (Acro …); experiment: BLI; dissociation pH 7.4 black, pH 5.4 grey [D00016 FIG. 3B]
[2] = biological target: T2, Human LRRC15 Protein, His Tag (Acro …); experiment: BLI; dissociation pH 7.4 black, pH 5.4 grey [D00008 FIG. 1F]
From the text: For each individual plot, antigen binding proteins were captured on anti-human Fc biosensors and associated with LRRC15 at pH 7.4. Dissociation was at pH 7.4 (black) or pH 5.4 (grey). Major X-axis ticks=100 seconds, with left dashed vertical line=0 seconds. Major Y-axis ticks=0.5 nm and octet plots are shown MYT5712 and MYT6080-MYT6121.
Multiple LRRC15-binding monoclonal antibodies have been described in the literature and can be used as a template for engineering pH-dependent binding. We selected discovery RabMAb clone 15G7 (rabbit VH SEQ ID NO: 378, rabbit VL SEQ ID NO: 451; humanized VH SEQ ID NO: 382, humanized VL SEQ ID NO: 455) as a LRRC15-binding monoclonal antibody for pH-engineering via histidine scanning. […] To generate pH-dependent sequence variants, individual amino acid residues within the heavy chain CDRs were systematically substituted with a histidine (or alanine if H was already present in a given position; e.g., MYT6099), one at a time (rabbit, MYT6080-6121). Desirable mutations were transferred to a humanized framework (humanized, MYT 8387-8411). After allowing for four days of protein expression, cell culture supernatants were collected, quantified by SDS-PAGE analysis, and the pH dependence of the variant was evaluated using biolayer interferometry (BLI) on an Octet RED 96e instrument. Briefly, cell culture supernatants were diluted based on qualitative expression level of the variant determined by visual examination of SDS-PAGE gels, 5 μL of cell culture supernatant was diluted into 195 μL of 1×PBST, pH 7.4 for high expressors, 25 μL of cell culture supernatant was diluted into 175 μL of 1×PBST, pH 7.4 for medium expressors and 100 μL of cell culture supernatant was diluted into 100 μL of 1×PBST, pH 7.4 for low expressors for loading onto the sensor tips.

Binder	binding result [1]	binding result [2]
B1	binds	
B2	binds	
B3	binds	
B4	binds	
B5	binds	
B6	no binding (tested: 50 nM LRRC15)	
B7	no binding (tested: 50 nM LRRC15)	
B8	binds	
B9	binds	
B10	binds	
B11	no binding (tested: 50 nM LRRC15)	
B12	binds	
B13	no binding (tested: 50 nM LRRC15)	
B14	no binding (tested: 50 nM LRRC15)	
B15	binds	
B16	binds	
B17	binds	

Binder	binding result [1]	binding result [2]
B18	binds	
B19	binds	
B20	binds	
B21	binds	
B22	no binding (tested: 50 nM LRRC15)	
B23	no binding (tested: 50 nM LRRC15)	
B24	binds	
B25	no binding (tested: 50 nM LRRC15)	
B26	no binding (tested: 50 nM LRRC15)	
B27	binds	
B28	binds	
B29	binds	
B30	no binding (tested: 50 nM LRRC15)	
B31	no binding (tested: 50 nM LRRC15)	
B32	no binding (tested: 50 nM LRRC15)	
B33		binds
